Results reported in patent US20260209363A1 (Chugai, published 2026).

What was measured:
human soluble IL-6R [1] = biological target: T1, human soluble IL-6R (human, UniProt P08887 20-357, limits assumed); test: in vivo KD in mouse plasma (albumin present), from total antibody, free and bound sIL6R 5 min after sIL6R; antibody 1 mg/kg IV
T1 construct: Soluble form; also called sIL6R; Human IL-6R
T1 sequence (looked up): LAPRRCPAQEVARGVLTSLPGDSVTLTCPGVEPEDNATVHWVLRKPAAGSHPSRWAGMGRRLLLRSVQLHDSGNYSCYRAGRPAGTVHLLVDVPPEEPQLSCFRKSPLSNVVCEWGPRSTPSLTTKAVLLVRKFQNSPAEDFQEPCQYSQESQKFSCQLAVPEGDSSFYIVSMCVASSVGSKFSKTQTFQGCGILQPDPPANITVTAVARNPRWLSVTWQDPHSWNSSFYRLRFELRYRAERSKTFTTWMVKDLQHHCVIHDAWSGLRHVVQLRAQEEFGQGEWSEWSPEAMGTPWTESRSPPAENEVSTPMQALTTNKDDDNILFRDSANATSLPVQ
Protocol: Next, free sIL6R in plasma was measured. The concentration of free sIL6R in plasma was measured on a fully automated ELISA system (Gyrolab xP workstation). First, sIL6R prepared at 23.4, 46.9, 93.8, 188, 375, 750, and 1500 ng/mL using a Protein-Free (PBS) Blocking Buffer (Thermo Scientific) was used as solutions for preparing the calibration curve. Mouse plasma samples were used in the measurements without diluting them. A solution of biotin-labeled H54 diluted to 10 micro g/mL using a Protein-Free (PBS) Blocking Buffer was used as a solution of the sIL6R-capturing molecule. Alexa Fluor (registered trademark) 647-labeled anti-human IL-6R antibody (R&D Systems) diluted to 1 micro g/mL using a Protein-Free (PBS) Blocking Buffer was used as a solution of the human IL-6R-detection molecule. PBS (pH 7.4) containing 0.05% TWEEN was used as a washing solution. The calibration curve solutions, mouse plasma samples, sIL6R-capturing molecule solution, sIL6R-detection molecule solution, and the washing solution were placed onto a PCR plate, and then the PCR plate was sealed with a plate sealer. After the PCR plate and the Bioaffy 200 disc were placed in the Gyrolab xP workstation, measurements were taken. Using the data processed by the Gyros Evaluater 3.6.2.30 software and the calibration curve concentrations, the concentration of free sIL6R in plasma was calculated by logistic regression using the XLfit 5.5.0.5 software.
Additionally, bound sIL6R in plasma was measured. The concentration of bound sIL6R in plasma was measured on an electrospray ionization mass spectrometer connected to a high-performance liquid chromatography (LC/ESI-MS/MS). First, H54//IC17 and sIL6R were mixed, and solutions for preparing the calibration curve of bound sIL6R were prepared at theoretical plasma concentrations of 0.0468, 0.467, 4.60, and 20.1 nmol/mL. The solutions for preparing the calibration curve and 1 or 2 micro L of a plasma sample were added to 75 or 150 micro g of magnetic beads (Magnosphere MS300/Carboxyl, JSR) to which anti-delta GK antibodies were solid-phased, and this was shaken at 25 degrees C. for one hour.

human soluble IL-6R [2] = biological target: T1, human soluble IL-6R; test: SPR (Biacore T200), antibody captured on Protein G, human IL-6R as analyte, 37 degrees C, no albumin
Protocol: Binding activities of the produced albumin switch molecules against human IL-6R were evaluated using Biacore T200 (Cytiva). As the running buffer, 50 mM Na Phosphate (pH 7.4), 150 mM NaCl, 0.05% Tween20 was used, and the evaluation was performed at 37 degrees C. First, Protein G (CALBIOCHEM) was used as a ligand-capturing molecule. Protein G (CALBIOCHEM) was solid-phased on a Series S Sensor Chip CM4 (Cytiva) using an Amine Coupling Kit (Cytiva). Antibody solution prepared using the running buffer was allowed to interact with this CM4 sensor chip to capture approximately 200 RU of the antibody. Human IL-6R used in the present measurement was prepared by an approach described in WO2018097307 (Example 3-2). Human IL-6R was diluted to 0, 100, and 400 nM with the running buffer, and allowed to bind to the captured antibody. The chip was regenerated using 3 M MgCl₂, and measurements were performed by repeatedly capturing the antibodies. Dissociation constant (KD) of each antibody for human IL-6R was calculated using Biacore T200 Evaluation Software 2.0. Specifically, the association rate constant ka (L/mol/s) and the dissociation rate constant kd (1/s) were calculated by global fitting of the sensorgrams obtained by measurement with the 1:1 Langmuir binding model, and the dissociation constant KD (mol/L) was calculated from these values.

mouse albumin = biological target: T2, mouse albumin (mouse, UniProt P07724 25-608); test: SPR (Biacore T200), antibody captured by anti-human Fc antibody, mouse albumin as analyte, 25 degrees C
T2 construct: also called recombinant mouse Albumin; mouse serum albumin
Protocol: Binding activities of the produced antibodies against mouse albumin were evaluated using Biacore T200 (Cytiva).
As the running buffer, 50 mM Na Phosphate (pH 7.4), 150 mM NaCl, 0.05% Tween20 was used, and the evaluation was performed at 25 degrees C. First, anti-human Fc antibody (Cytiva) was used as a ligand-capturing molecule. Anti-human Fc antibody (Cytiva) was solid-phased on a Series S Sensor Chip CM4 (Cytiva) using an Amine Coupling Kit (Cytiva). Antibody solution prepared using the running buffer was allowed to interact with this CM4 sensor chip to capture approximately 120 RU of the antibody. Mouse albumin (Bioscience) was diluted to 0 and 300 nM with the running buffer and allowed to bind to the captured antibody. The chip was regenerated using 3 M MgCl₂, and measurements were performed by repeatedly capturing the antibodies. Dissociation constant (KD) of each antibody for mouse albumin was calculated using Biacore T200 Evaluation Software 2.0. Specifically, the association rate constant ka (L/mol/s) and the dissociation rate constant kd (1/s) were calculated by global fitting of the sensorgrams obtained by measurement with the 1:1 Langmuir binding model, and the dissociation constant KD (mol/L) was calculated from these values.

B1: H54//IC17 (bispecific antibody, human IgG1, kappa)
heavy 1: QVQLQESGPGLVKPSETLSLTCAVSGYSISDDQAWSWVRQPPGEGLEWIGYISYSGITNYNPSLKGRVTISRDTSKNQFSLKLSSVTAADTAAYYCARSLARTTAMDYWGEGTLVTVSSASTKGPSVFPLAPSSKSTSGGTAALGCLVEDYFPEPVTVSWNSGALTSGVHTFPAVLQSSGLYSLSSVVTVPSSSLGTQTYICNVNHKPSNTKVDERVEPKSCDKTHTCPPCPAPELRRGPSVFLFPPKPKDTLMISRTPEVTCVVVDVSHEDPEVKFNWYVDGVEVHNAKTKPREEQYNSTYRVVSVLTVLHQDWLNGKEYKCKVSNKALPAPIEKTISKAKGQPREPQVCTLPPSREEMTKNQVSLSCAVKGFYPSDIAVEWESNGQPENNYKTTPPVLDSDGSFFLVSKLTVDKSRWQQGNVFSCSVMHEALHNHYTQKSLSLSP
light 1: DIQMTQSPSSLSASVGDSVTITCQASQDISSYLNWYQQKPGKAPELLIYYGSELHSGVPSRFSGSGSGTDFTFTISSLEAEDAATYYCQQGNSLPYTFGQGTKVEIERTVAAPSVFIFPPSDRKLKSGTASVVCLLNNFYPREAKVQWKVDNALQSGNSQESVTEQDSKDSTYSLSSTLTLSKADYEKHKVYACEVTHQGLSSPVTKSFNRGEC
heavy 2: not shown
light 2: QVQLQQSGPQLVRPGASVKISCKASGYSFTSYWMHWVNQRPGQGLEWIGMIDPSYSETRLNQKFKDKATLTVDKSSSTAYMQLSSPTSEDSAVYYCALYGNYFDYWGQGTTLTVSSASVAAPSVFIFPPSDEQLKSGTASVVCLLNNFYPREAKVQWKVDNALQSGNSQESVTEQDSKDSTYSLSSTLTLSKADYEKHKVYACEVTHQGLSSPVTKSFNRGEC
notes: Heavy chain constant regions lack the C-terminal glycine and lysine; also called anti-human IL-6R/KLH bispecific antibody
Human soluble IL-6R [1]
  Kd: 1.3 nM
Human soluble IL-6R [2]
  Kd: 3.41 nM
  koff: 0.00141 s⁻¹
  kon: 412000 M⁻¹ s⁻¹

B2: ABD094(H)-H54//IC17 (bispecific antibody, human IgG1, kappa)
heavy 1: LAEAKEAANAELDSYGVSDFYKRLIDKAKTVEGVEALKDAILAALPQVQLQESGPGLVKPSETLSLTCAVSGYSISDDQAWSWVRQPPGEGLEWIGYISYSGITNYNPSLKGRVTISRDTSKNQFSLKLSSVTAADTAAYYCARSLARTTAMDYWGEGTLVTVSSASTKGPSVFPLAPSSKSTSGGTAALGCLVEDYFPEPVTVSWNSGALTSGVHTFPAVLQSSGLYSLSSVVTVPSSSLGTQTYICNVNHKPSNTKVDERVEPKSCDKTHTCPPCPAPELRRGPSVFLFPPKPKDTLMISRTPEVTCVVVDVSHEDPEVKFNWYVDGVEVHNAKTKPREEQYNSTYRVVSVLTVLHQDWLNGKEYKCKVSNKALPAPIEKTISKAKGQPREPQVCTLPPSREEMTKNQVSLSCAVKGFYPSDIAVEWESNGQPENNYKTTPPVLDSDGSFFLVSKLTVDKSRWQQGNVFSCSVMHEALHNHYTQKSLSLSP
light 1: B1 light 1
heavy 2: not shown
light 2: B1 light 2
Human soluble IL-6R [1]
  Kd: 3.6 nM
Mouse albumin
  Kd: 14.3 nM
  koff: 0.00103 s⁻¹
  kon: 71800 M⁻¹ s⁻¹
Human soluble IL-6R [2]
  Kd: 5.21 nM
  koff: 0.00133 s⁻¹
  kon: 255000 M⁻¹ s⁻¹
